Experimental data as given in article PMC5638340 (PLoS ONE, 2017).

Biological target: T1, Extracellular domain (ECD) of the human neuronal α9 nAChR (human, UniProt Q9UGM1 23-238)
T1 construct: also called ECD of human α9 nAChR; water-soluble extracellular domain of human α9 nAChR; source: expressed, enzymatically deglycosylated and purified as described [26]
Experiment: radioligand binding
Settings: both partners purified

T1 sequence (Q9UGM1 23-238): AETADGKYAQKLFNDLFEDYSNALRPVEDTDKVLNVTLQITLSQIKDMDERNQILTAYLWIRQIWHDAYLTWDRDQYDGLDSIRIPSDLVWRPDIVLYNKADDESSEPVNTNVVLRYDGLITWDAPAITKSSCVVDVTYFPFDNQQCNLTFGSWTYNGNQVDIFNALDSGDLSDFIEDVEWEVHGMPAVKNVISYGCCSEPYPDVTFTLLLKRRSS

B1: PLA2 from porcine pancreas (enzyme)
chain: not shown
notes: also called PP PLA2; porcine pancreatic PLA2
With B1 the IC50 was 5.5 µM.
